Assay results as given in paper PMC3326523, “Histone Recognition and Large-Scale Structural Analysis of the Human Bromodomain Family” (Cell, 2012).
Values belong to the substance of their own block, whether it stands above or below them.

Experiments:
[1] = target: CECR2 bromodomain (human) (UniProt Q9BXF3); test: ITC; peptide (mM stock) titrated into bromodomain (about 50 μM), by the concentrations in the tables; 10 or 15°C, 50 mM HEPES pH 7.5, 150 mM NaCl; single binding site model
[2] = target: TAF1(1/2), tandem bromodomains of TAF1 (human) (UniProt P21675); test: as above
[3] = target: BAZ2B bromodomain (human) (UniProt Q9UIF8); test: as above
PCAF bromodomain (human) = PCAF bromodomain (human) (UniProt Q92831); test: as above
[4] = target: TAF1(2), second bromodomain of TAF1 (human) (UniProt P21675); test: as above
[5] = target: SMARCA2 bromodomain (human) (UniProt P51531); test: as above
[6] = target: CREBBP bromodomain (human) (UniProt Q92793); test: as above
[7] = target: BRD3(1), first bromodomain of BRD3 (human) (UniProt Q15059); test: as above
[8] = target: KIAA1240 bromodomain (human) (UniProt Q9ULI0); test: as above
[9] = target: BRD3(1), first bromodomain of BRD3 (human) (UniProt Q15059); test: ITC; as a1; rows with N of about 0.5 or 0.25: two or more bromodomains on one peptide, apparent binding constants, events not deconvoluted
[10] = target: BRD3(2), second bromodomain of BRD3 (human) (UniProt Q15059); test: as above
[11] = target: H3pS10K14acK18ac peptide (ITC) (human); test: ITC; VP-ITC or ITC200, 10 or 15°C, 50 mM HEPES pH 7.5, 150 mM NaCl; in most cases single binding site model
[12] = target: H3K14ac peptide (ITC) (human); test: as above
[13] = target: WDR9 second bromodomain, WDR9(2) (UniProt Q9NSI6); test: SPOT peptide array, His6-BRD overlay; conditions: reference: H3K4acK9ac peptide; sites T3
EP300 bromodomain = EP300 bromodomain (UniProt Q09472); test: SPOT peptide array, His6-BRD overlay; conditions: reference: H3K4acK9ac peptide; sites T3

Sequence of BRD3(1), first bromodomain of BRD3 (human) (Q15059 whole entry): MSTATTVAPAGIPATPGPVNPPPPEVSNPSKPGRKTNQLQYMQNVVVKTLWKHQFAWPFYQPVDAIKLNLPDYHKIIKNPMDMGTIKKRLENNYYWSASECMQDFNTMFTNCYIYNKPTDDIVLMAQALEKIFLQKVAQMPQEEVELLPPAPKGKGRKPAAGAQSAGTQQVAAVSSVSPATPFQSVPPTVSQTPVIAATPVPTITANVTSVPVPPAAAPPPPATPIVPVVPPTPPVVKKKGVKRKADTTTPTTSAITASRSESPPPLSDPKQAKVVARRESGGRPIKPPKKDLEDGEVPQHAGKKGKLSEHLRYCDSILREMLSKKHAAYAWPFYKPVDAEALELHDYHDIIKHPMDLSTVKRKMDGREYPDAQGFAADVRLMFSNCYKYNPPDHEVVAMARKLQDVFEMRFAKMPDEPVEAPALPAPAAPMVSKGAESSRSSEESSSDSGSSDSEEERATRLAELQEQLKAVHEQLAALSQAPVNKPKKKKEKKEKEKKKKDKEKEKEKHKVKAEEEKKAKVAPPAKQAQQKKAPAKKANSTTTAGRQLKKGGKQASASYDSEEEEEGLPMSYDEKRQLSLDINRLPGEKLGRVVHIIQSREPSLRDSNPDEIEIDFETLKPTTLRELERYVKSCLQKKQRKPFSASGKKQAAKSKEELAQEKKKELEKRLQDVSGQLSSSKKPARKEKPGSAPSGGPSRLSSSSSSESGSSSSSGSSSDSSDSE
Sequence of TAF1(1/2), tandem bromodomains of TAF1 (human) (P21675 whole entry): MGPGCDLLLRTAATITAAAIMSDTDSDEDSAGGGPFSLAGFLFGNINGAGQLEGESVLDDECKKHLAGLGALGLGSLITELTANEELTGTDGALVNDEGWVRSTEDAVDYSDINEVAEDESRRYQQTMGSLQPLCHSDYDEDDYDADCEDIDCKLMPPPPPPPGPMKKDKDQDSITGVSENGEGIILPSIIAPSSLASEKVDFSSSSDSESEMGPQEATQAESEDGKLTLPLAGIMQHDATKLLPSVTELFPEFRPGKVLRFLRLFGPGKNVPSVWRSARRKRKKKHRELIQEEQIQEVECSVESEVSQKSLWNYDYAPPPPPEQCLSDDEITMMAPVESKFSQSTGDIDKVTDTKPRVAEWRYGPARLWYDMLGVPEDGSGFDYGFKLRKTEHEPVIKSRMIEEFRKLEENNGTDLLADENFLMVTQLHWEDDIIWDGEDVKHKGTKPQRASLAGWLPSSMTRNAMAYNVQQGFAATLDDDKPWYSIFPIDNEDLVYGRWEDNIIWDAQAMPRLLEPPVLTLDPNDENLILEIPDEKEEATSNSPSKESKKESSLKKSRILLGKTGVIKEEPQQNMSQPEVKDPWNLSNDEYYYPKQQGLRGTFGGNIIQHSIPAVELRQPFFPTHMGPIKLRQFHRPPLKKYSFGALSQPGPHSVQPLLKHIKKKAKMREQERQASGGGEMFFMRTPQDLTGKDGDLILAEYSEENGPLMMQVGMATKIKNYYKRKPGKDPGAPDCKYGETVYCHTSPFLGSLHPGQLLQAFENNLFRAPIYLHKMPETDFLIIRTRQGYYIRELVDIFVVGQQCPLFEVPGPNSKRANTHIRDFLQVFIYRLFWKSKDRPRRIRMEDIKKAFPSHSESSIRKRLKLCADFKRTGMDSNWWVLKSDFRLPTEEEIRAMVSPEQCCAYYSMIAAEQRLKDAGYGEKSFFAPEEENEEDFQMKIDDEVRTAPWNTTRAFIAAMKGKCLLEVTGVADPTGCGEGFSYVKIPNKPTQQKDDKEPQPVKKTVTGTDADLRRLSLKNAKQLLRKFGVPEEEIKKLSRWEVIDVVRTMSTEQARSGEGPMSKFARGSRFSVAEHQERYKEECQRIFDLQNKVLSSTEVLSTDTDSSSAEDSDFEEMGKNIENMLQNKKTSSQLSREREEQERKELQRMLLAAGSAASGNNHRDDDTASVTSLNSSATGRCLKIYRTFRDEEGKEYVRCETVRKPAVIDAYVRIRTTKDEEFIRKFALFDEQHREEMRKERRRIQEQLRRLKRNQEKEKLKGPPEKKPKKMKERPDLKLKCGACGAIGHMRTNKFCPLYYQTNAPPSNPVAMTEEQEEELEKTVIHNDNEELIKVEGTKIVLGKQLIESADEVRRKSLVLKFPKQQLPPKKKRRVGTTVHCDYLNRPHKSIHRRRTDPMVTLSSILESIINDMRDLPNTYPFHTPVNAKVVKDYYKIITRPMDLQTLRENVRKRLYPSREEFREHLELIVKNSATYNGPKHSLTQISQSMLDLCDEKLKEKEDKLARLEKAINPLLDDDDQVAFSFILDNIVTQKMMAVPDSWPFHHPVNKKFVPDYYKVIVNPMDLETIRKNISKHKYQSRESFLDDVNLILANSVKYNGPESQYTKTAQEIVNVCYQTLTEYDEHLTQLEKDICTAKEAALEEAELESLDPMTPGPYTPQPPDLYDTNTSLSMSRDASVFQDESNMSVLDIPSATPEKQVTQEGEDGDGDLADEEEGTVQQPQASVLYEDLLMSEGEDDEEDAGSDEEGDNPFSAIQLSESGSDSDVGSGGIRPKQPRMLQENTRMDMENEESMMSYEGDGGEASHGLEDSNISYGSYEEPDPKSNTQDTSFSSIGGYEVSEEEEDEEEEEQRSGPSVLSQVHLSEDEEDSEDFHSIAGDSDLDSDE
Sequence of bromodomain of CREBBP, tag removed (ITC) (Q92793 1081-1197): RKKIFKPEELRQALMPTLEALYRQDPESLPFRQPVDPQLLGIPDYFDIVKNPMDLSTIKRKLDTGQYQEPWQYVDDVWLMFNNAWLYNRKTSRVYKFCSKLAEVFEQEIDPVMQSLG
Sequence of CECR2 bromodomain (human) (Q9BXF3 424-538): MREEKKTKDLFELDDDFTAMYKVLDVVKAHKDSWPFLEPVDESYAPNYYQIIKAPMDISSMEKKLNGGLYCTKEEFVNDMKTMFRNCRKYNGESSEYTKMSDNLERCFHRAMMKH
Sequence of BAZ2B bromodomain (human) (Q9UIF8 whole entry): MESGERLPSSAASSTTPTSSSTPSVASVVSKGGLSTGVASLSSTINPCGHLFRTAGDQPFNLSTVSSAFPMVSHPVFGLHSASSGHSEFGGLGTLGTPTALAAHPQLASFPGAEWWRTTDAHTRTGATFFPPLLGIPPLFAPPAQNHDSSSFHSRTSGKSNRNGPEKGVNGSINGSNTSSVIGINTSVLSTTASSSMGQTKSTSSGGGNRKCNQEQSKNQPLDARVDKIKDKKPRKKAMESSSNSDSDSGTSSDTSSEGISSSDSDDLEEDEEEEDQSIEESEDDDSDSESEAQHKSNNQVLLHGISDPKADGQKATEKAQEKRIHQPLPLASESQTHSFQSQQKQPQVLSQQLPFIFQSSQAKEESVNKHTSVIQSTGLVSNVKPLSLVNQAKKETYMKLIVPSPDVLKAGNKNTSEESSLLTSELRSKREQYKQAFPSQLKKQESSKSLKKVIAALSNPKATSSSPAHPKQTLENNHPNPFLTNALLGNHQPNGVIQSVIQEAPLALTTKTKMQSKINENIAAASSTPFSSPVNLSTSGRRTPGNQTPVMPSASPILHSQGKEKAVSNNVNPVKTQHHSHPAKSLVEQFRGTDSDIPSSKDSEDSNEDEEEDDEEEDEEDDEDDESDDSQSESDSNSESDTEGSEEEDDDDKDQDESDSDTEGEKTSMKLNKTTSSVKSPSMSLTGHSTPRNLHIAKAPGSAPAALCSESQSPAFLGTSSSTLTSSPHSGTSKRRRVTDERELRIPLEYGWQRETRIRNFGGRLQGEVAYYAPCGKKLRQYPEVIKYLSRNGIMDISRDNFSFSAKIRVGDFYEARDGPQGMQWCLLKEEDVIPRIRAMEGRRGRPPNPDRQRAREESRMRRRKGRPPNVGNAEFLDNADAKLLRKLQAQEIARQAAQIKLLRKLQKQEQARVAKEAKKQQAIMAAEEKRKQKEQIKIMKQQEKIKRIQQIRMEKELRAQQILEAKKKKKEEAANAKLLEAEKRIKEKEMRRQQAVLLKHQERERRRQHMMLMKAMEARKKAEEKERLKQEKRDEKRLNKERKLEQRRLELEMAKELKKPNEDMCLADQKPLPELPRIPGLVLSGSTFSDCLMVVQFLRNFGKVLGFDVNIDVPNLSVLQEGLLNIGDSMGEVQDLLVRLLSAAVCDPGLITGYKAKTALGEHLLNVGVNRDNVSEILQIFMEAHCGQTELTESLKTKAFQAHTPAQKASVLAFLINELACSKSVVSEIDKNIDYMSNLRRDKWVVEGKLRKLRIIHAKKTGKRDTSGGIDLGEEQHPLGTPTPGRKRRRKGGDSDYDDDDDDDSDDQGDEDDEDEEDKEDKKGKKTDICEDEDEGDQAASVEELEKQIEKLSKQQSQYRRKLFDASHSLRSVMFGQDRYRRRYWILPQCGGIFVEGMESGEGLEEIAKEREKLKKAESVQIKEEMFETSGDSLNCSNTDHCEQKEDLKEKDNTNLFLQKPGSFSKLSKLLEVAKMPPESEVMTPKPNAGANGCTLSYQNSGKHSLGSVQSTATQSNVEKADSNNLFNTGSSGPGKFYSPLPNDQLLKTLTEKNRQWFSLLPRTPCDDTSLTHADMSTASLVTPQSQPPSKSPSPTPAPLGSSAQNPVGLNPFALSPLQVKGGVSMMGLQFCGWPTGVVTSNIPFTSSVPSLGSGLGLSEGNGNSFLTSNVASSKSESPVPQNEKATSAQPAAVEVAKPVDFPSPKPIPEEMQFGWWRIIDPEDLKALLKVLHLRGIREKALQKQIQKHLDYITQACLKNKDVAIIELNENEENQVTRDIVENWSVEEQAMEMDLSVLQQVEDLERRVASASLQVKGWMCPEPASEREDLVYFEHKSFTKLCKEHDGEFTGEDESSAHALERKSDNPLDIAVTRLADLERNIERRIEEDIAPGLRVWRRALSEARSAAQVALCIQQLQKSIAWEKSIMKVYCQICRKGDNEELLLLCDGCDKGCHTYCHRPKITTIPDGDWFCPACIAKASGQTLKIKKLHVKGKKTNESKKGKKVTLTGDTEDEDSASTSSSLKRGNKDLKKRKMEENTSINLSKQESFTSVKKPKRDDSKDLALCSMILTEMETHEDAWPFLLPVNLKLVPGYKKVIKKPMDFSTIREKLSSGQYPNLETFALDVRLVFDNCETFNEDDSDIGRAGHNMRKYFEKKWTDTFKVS
Sequence of CREBBP bromodomain (human) (Q92793 1081-1197): as the sequence (Q92793 1081-1197) above
Sequence of TAF1(2), second bromodomain of TAF1 (human) (P21675 whole entry): as the sequence (P21675 whole entry) above

Substance: H3K9/K14 peptide KQTARKacSTGGKacAPRKQY
Kd [2]: 339 µM
stoichiometry N [2]: 1.02

Substance: H3K14 peptide KSTGGKacAPRKQY
Kd [3]: 7.6 µM
stoichiometry N [3]: 1
stoichiometry N (PCAF bromodomain (human)): 1.01
Kd [2]: 179 µM
stoichiometry N [2]: 1.01
Kd [4]: 306 µM
stoichiometry N [1]: 1
stoichiometry N [5]: 1.05

Substance: H4K8 peptide RGKGGKacGLGKGY
Kd [7]: 211 µM
stoichiometry N [7]: 1
stoichiometry N [8]: 1

Substance: H4K12/16/20 peptide GKacGGAKacRHRKacV
Kd [9]: 31.4 µM
stoichiometry N [9]: 0.51
stoichiometry N [10]: 0.5

Substance: histone H3 N-terminal tail (from UniProt P68431) H3 pT3K4acK9ac peptide
binding against the reference [13]: gained
binding against the reference (EP300 bromodomain): gained

Results, then the substance that gave them:

stoichiometry N [1]: 1
Substance: H3K9 peptide KQTARKacSTGGKY

Kd [2]: 150 µM
stoichiometry N [2]: 1.05
Substance: H3K9/S10/K14 peptide KQTARKacpSTGGKacAPRKQY

stoichiometry N [6]: 1
Substance: H3S10K14K18 peptide KpSTGGKacAPRKacQY

Kd [11]: 131 µM
Kd [12]: 733 µM
Substance: bromodomain of CREBBP, tag removed (ITC) (from UniProt Q92793 1081-1197) (domain or fragment)
